Tests used:
[1] = molecular target: BTV1 VP5 H384-6A triple mutant, S-tagged recombinant protein (Bluetongue virus serotype 1 (BTV1)); test: SDS-PAGE without reduction and heating, Western blot
[2] = molecular target: BTV1 VP5 H385A mutant, S-tagged recombinant protein (Bluetongue virus serotype 1 (BTV1)); test: as above
[3] = molecular target: BTV1 VP5 anchoring domain (ANC) polypeptide, His-tagged (Bluetongue virus serotype 1 (BTV1)); test: SDS-PAGE without reduction and heating, Coomassie staining
[4] = molecular target: BTV1 VP5, wild-type, S-tagged recombinant protein (Bluetongue virus serotype 1 (BTV1)); test: SDS-PAGE without reduction and heating, Western blot

BTV1 VP5 H384-6A triple mutant, S-tagged recombinant protein (natural protein)
percent trimer [1]: 25%
stoichiometry N [1]: 3

BTV1 VP5 H385A mutant, S-tagged recombinant protein (natural protein)
percent trimer [2]: 25%
stoichiometry N [2]: 3

BTV1 VP5 anchoring domain (ANC) polypeptide, His-tagged (domain or fragment)
percent trimer [3]: 30%
stoichiometry N [3]: 3

BTV1 VP5, wild-type, S-tagged recombinant protein (natural protein)
percent trimer [4]: 25%
stoichiometry N [4]: 3
